# Laboratory results as given in paper PMC3114436 (Molecular cell, 2008).
# No end group written: not given here.
# T1: C. crescentus ClpS residues 35-119 (Caulobacter crescentus, UniProt Q9A5I0 35-119)
# T1 sequence (looked up): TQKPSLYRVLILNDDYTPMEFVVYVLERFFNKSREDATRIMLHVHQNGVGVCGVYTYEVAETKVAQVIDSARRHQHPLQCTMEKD
# Experiments:
# Caulobacter ClpS = Caulobacter ClpS (Caulobacter vibrioides, UniProt Q9A5I0); test: ClpS binding assay by fluorescence anisotropy; design: species or system Caulobacter crescentus; details: Fig. 3B
# [1] = target: T1, C. crescentus ClpS residues 35-119; test: fluorescence polarisation
# [2] = target: peptides with Tyr, Trp, Phe, or Leu at the N-terminus; test: fluorescence polarisation
# [3] = target: T1, C. crescentus ClpS residues 35-119; test: crystal structure
molecule,measurement,setting,value
Xxx-Leu-Phe-Val-Gln-Tyr-His6-Cys [Tyr peptide],affinity for Caulobacter ClpS (in words),Caulobacter ClpS,sub-micromolar
FLFVQYHHHHHHC(fluorescein maleimide) [fluorescein-labelled N-end rule peptide Phe-Leu-Phe-Val-Gln-Tyr-His6-Cys],binding result,[1],binds
WLFVQYHHHHHHC(fluorescein maleimide) [fluorescein-labelled N-end rule peptide Trp-Leu-Phe-Val-Gln-Tyr-His6-Cys],binding result,[1],binds
YLFVQYHHHHHHC(fluorescein maleimide) [fluorescein-labelled N-end rule peptide Tyr-Leu-Phe-Val-Gln-Tyr-His6-Cys],Kd,[1],~400 nM
C. crescentus ClpS residues 35-119 (domain or fragment) TQKPSLYRVLILNDDYTPMEFVVYVLERFFNKSREDATRIMLHVHQNGVGVCGVYTYEVAETKVAQVIDSARRHQHPLQCTMEKD,Kd,[2],150 to 500 nM
YLFVQRDSKE [N-end rule decapeptide Tyr-Leu-Phe-Val-Gln-Arg-Asp-Ser-Lys-Glu],binding result,[3],binds
LLFVQYHHHHHHC(fluorescein maleimide) [fluorescein-labelled N-end rule peptide Leu-Leu-Phe-Val-Gln-Tyr-His6-Cys],binding result,[1],binds
E. coli ClpS D36A (natural protein) MGKTNDWLDFDQLAEEKVRDALKPPSMYKVILVNDAYTPMEFVIDVLQKFFSYDVERATQLMLAVHYQGKAICGVFTAEVAETKVAMVNKYARENEHPLLCTLEKA,"KM of ClpAP degradation of Tyr-GFP with the ClpS variant (900 nM), fold increase",Tyr-GFP,2 fold
E. coli ClpS H66A (natural protein) MGKTNDWLDFDQLAEEKVRDALKPPSMYKVILVNDDYTPMEFVIDVLQKFFSYDVERATQLMLAVAYQGKAICGVFTAEVAETKVAMVNKYARENEHPLLCTLEKA,"KM of ClpAP degradation of Tyr-GFP with the ClpS variant (900 nM), fold increase",Tyr-GFP,5 fold
